Assay results as given in paper PMC4773448, “Isolation and Characterization of a Novel Cold-Adapted Esterase, MtEst45, from Microbulbifer thermotolerans DAU221” (Frontiers in Microbiology, 2016).

Substrate: CCCC(=O)Oc1ccc([N+](=O)[O-])cc1
Assay: purified protein
Type: biochemical, Microbulbifer thermotolerans
Settings: 20 mM Tris-HCl pH 8.17, 46.27 °C, 0.1-1 mM substrate

B1: MtEst45 (Microbulbifer thermotolerans) (protein)
chain: APRFISNLDIISFDGTELDANLFVPDTPPPDGGYPTVLFTNSWALDKHQYLLQAKALAEKGYLVMSYSTRGFGKSGGLVDVAGDNTLADTRVLIDWLEANYPVGKLGMAGISYGAGISLLTAAADSRVDAVAALSGWSDVVEGLYPNNTVNLVWGTLLVNTAFKREPIVDQIWSNLRNGHNLSDVFTFSASRSALSYVDALNANGTAVLLSNNFADYLFKPNSTIDLYTLLEGPKKLLLNPGTHAVTETLGGNGGHIWTTSFRWFDRYLKGENNGIDREPKVDMTVRISNRLEQFDDFPVTGKQSHWYLHPRLTYFGNGQLKSNPYSGWRWSNQFHSGADTAAGTGIPLVSDALEGLGIPVYTFMPAINGYYAIEYQSPLLWNGMKIRGTPTLEMWITPSKPEVQLHLHLYDTGPLGMGRLITHAPITLRNAQVGREQKIDVEFFTTSYDVPAGHRVTLAIDTEGLIYQKPADTDYEITVPYRSDRVSKLAIPQL
notes: mature form without 21-residue signal peptide (495 aa of 516); N-terminal His6 (pCold I), E. coli BL21(DE3), tag not reported cut; about 45 kDa on SDS-PAGE
Protein B1 has a Km of 99.8 µM.
